Results taken from article PMC1852638.
Like-named read-outs stand apart in the source and are kept apart here.

How the values were obtained:
[1] = target: myosin 5 heavy meromyosin (HMM) (UniProt Q99104); test: inhibition of actin-activated MgATPase
[2] = target: myosin 5 heavy meromyosin (HMM) (UniProt Q99104); test: inhibition of actin-activated MgATPase; remark: listed apart in the source

Ki [1]: 530 nM
Ki [2]: 750 nM
Substance: glutathione S-transferase (GST)-47 kDa GTD fusion protein, dimer (from UniProt Q99104 1-1853) (domain or fragment)
